Values quoted from earlier work as cited in article PMC11166923.

Biological target: integrin β1D cytoplasmic tail (Homo sapiens) (UniProt P05556)
Chain of UniProt P05556 (P05556 752-798): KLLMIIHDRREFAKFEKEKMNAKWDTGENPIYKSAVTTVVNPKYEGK

Kd: 30 µM
Substance: Talin-2 (from UniProt Q9Y4G6)
